Experimental data as given in US20050019862.

Target: T1, human plasminogen, P00747
T1 chain: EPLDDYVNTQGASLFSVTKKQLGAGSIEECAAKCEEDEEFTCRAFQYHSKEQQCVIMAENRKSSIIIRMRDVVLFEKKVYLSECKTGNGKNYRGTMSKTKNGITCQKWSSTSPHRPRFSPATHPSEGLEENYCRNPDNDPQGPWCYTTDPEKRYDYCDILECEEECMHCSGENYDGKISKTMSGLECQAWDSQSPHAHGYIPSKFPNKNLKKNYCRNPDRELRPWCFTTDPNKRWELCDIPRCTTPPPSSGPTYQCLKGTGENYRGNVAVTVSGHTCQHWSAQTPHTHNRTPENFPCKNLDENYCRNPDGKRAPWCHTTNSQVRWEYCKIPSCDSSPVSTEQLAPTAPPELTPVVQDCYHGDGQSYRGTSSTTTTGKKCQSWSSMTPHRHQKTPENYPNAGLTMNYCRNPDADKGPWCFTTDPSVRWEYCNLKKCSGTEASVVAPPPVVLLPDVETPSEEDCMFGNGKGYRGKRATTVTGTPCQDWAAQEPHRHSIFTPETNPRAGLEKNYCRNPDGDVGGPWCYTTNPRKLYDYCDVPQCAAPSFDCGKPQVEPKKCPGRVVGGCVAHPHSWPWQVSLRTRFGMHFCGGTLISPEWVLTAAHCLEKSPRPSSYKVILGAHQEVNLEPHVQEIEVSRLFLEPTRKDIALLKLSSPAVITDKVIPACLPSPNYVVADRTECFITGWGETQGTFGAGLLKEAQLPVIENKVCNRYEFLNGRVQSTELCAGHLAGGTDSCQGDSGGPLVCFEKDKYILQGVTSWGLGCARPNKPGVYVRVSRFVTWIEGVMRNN

B1: recombinant staphylokinase (SAK) produced in E. coli from plasmid pOXYSAK-1 (protein)
chain: SSSFDKGKYKKGDDASYFEPTGPYLMVNVTGVDGKGNELLSPHYVEFPIKPGTTLTKEKIEYYVEWALDATAYKEFRVVELDPSAKIEVTYYDKNKKKEETKSFPITEKGFVVPDLSEHIKNPGFNLITKVVIEKK
Specific activity of purified SAK protein: 1.75 U/µg protein
